The values that follow come from publication PMC3797752.

Some results are limits rather than exact numbers.

Usually Kd stands for the free concentration of one partner at which half of the binding sites on the other are occupied at equilibrium, for simple one-to-one binding. A word on the stoichiometry N: it is a count of units in the complex or per binding partner.

Assay [1] has as its target 22-mer tyrosine-sulfated biotinylated N-terminal CCR5 peptide. Nature of the assay: SPR; qualitative; ~5000 RU of biotinylated CCR5 peptide on an SA chip; 100 nM gp120 proteins injected at 10 µl/min, alone or pre-incubated with 2-fold molar excess of sCD4; 25°C; HBS-EP buffer; compared at time = 300 s. (In general: In SPR one partner is held on a chip, and binding of the other changes the refractive index at the surface.)

The target in assay [2] is soluble CD4 (sCD4) (UniProt P01730). Nature of the assay: SPR; BIAcore 3000; ~200 RU of sCD4 or mAb immobilised directly on a CM5 chip via amine coupling; varying concentrations of gp120 injected at 80 µl/min; 25°C; HBS-EP buffer; 1:1 Langmuir fit.
The target in assay [3] is wild-type SF162 gp140 (cleavage-defective) (HIV-1 SF162). Nature of the assay: not stated; oligomeric state of the purified glycoproteins; method not given.

As for “gp120+sCD4 (sCD4-liganded, wild-type gp120) (from UniProt P01730) (complex)”, the fold better binding than gp120 in assay [1] is above 10 fold.

For wild-type SF162 gp120 (natural protein), in assay [2], the dissociation constant Kd was 24.5 nM.

Turning to “wild-type SF162 gp140 (cleavage-defective) (natural protein)”, the stoichiometry N in assay [3] turned out to be 3.
